According to US20250076311A1 (Chugai, published 2025):

T1: cynomolgus monkey FcγRIIa1 extracellular domain with C-terminal His-tag (cynomolgus monkey)
T1 construct: also called cyno FcgRIIa1; cynoFcγRIIa1; not shown: His-tag added to the C-terminus
T1 chain: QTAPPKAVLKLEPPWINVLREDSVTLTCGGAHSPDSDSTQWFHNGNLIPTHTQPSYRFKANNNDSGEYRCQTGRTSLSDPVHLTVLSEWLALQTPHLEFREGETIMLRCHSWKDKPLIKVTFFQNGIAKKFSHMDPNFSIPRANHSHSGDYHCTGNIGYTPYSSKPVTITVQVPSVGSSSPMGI

T2: cynomolgus monkey FcγRIIa3 extracellular domain with C-terminal His-tag (cynomolgus monkey)
T2 construct: also called cyno FcgRIIa3; cynoFcγRIIa3; not shown: His-tag added to the C-terminus
T2 chain: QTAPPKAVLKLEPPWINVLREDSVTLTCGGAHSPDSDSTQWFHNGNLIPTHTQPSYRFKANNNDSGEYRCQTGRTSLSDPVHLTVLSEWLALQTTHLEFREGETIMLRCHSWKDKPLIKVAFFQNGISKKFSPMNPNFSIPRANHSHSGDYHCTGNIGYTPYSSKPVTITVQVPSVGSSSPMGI

T3: human FcγRIIaH extracellular domain with C-terminal His-tag (human, UniProt P12318 34-217)
T3 construct: also called human FcgRIIaH; FcγRIIa type H; not shown: His-tag added to the C-terminus
T3 sequence: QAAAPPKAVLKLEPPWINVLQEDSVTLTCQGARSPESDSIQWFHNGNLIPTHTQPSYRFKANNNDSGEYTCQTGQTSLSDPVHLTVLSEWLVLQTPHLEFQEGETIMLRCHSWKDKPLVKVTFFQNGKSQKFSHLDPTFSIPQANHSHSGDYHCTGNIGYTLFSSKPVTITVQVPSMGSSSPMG

T4: human FcγRIIaR extracellular domain with C-terminal His-tag (human, UniProt P12318 34-217)
T4 construct: also called human FcgRIIaR; FcγRIIa type R; not shown: His-tag added to the C-terminus
T4 chain: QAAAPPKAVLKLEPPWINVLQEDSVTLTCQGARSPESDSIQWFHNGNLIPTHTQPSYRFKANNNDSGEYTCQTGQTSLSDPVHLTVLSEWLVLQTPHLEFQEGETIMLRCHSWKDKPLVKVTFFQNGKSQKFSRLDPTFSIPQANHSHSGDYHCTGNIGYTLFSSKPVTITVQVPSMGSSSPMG

T5: human FcγRIIaR extracellular domain, His-tagged (human, UniProt P12318 34-217)
T5 construct: also called human FcgRIIaR; FcγRIIa type R
T5 chain: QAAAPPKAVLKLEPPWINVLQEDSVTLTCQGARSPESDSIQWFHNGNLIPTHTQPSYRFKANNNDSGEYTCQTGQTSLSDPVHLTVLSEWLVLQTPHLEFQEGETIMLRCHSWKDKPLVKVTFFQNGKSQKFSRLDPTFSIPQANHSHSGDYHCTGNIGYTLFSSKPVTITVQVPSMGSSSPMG

T6: human FcγRIIb extracellular domain, His-tagged (human, UniProt P31994 43-217)
T6 construct: also called human FcgRIIb
T6 sequence: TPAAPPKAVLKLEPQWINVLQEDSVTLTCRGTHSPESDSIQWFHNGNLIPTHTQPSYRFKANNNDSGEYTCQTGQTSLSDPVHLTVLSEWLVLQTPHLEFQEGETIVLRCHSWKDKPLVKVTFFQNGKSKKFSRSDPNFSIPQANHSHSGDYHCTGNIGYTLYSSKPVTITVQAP

T7: human FcγRIIaH extracellular domain, His-tagged (human, UniProt P12318 34-217)
T7 construct: also called human FcgRIIaH; FcγRIIa type H
T7 sequence: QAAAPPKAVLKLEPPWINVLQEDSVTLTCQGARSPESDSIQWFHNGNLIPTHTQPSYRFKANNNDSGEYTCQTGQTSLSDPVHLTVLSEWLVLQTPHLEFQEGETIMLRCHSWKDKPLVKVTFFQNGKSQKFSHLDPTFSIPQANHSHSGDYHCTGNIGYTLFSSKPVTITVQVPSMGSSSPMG


Legend:
[1] = biological target: T1, cynomolgus monkey FcγRIIa1 …; experiment: SPR (BIACORE), antibody captured, FcgR analyte
[2] = biological target: T2, cynomolgus monkey FcγRIIa3 …; experiment: SPR (BIACORE), antibody captured, FcgR analyte
[3] = biological target: T3, human FcγRIIaH extracellular domain …; experiment: SPR (BIACORE), antibody captured, FcgR analyte
[4] = biological target: T8, cynomolgus monkey FcγRIIIaS extracellular domain with C-terminal His-tag (cynomolgus monkey, UniProt A3RFZ7 21-206 (rhesus entry)); experiment: SPR (BIACORE), antibody captured, FcgR analyte
T8 construct: also called cyno FcgRIIIaS; cynoFcγRIIIaS; not shown: His-tag added to the C-terminus

[5] = biological target: T8, cynomolgus monkey FcγRIIIaS …; experiment: SPR (BIACORE); KD of SG1 / KD of variant
[6] = biological target: T9, human FcγRIIIaV extracellular domain with C-terminal His-tag (human, UniProt P08637 17-208); experiment: SPR (BIACORE), antibody captured, FcgR analyte
T9 construct: also called human FcgRIIIaV; not shown: His-tag added to the C-terminus

[7] = biological target: T4, human FcγRIIaR extracellular domain …; experiment: SPR (BIACORE), antibody captured, FcgR analyte
[8] = biological target: T5, human FcγRIIaR extracellular domain, …; experiment: SPR (Biacore), 25C, FcgR bound per antibody captured
[9] = biological target: T6, human FcγRIIb extracellular domain, …; experiment: as above
[10] = biological target: T10, human FcγRIIIaV extracellular domain, His-tagged (human, UniProt P08637 17-208); experiment: as above
T10 construct: also called human FcgRIIIaV

[11] = biological target: T7, human FcγRIIaH extracellular domain, …; experiment: as above

T10 sequence (P08637 17-208 F176V): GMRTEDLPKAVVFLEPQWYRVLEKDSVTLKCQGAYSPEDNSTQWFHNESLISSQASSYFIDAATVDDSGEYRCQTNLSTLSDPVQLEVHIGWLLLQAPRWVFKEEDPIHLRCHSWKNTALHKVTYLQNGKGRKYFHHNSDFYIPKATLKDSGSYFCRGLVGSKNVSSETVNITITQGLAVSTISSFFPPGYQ
T8 sequence (A3RFZ7 21-206): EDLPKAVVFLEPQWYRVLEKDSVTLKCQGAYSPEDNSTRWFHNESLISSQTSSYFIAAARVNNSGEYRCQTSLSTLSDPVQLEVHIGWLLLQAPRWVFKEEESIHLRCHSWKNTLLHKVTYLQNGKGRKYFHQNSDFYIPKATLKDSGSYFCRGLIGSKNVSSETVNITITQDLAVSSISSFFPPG
T9 sequence (P08637 17-208 F176V): as the sequence (P08637 17-208 F176V) above

Row | Kd [1] | Kd [2] | Kd [3] | Kd [4] | KD fold (SG1 = 1) [5] | Kd [6] | Kd [7] | Binding to human FcgRs (parent B3 = 100) [8] | Binding to human FcgRs (parent B3 = 100) [9] | Binding to human FcgRs (parent B3 = 100) [10] | Binding to human FcgRs (parent B3 = 100) [11] | Binder
1 | 1200 nM | 1500 nM | 1500 nM | 1300 nM | 0.28 fold |  |  |  |  |  |  | M103205H795-MY105/M103202L889-SK1 (antibody, human IgG1, kappa, name in EU numbering, Fc variant of MS1032LO06-SG1; positions in EU numbering) heavy: QVTLKESGPVLVKPTETLTLTCTVSGIDLSHDDISWVRQAPGKGLEWVGIISYAGSTYYASWAKGRLTISKDTSKNQVVLTMTNMDPVDTATYYCARGVPAYSHGGDLWGQGTLVTVSSASTKGPSVFPLAPSSKSTSGGTAALGCLVKDYFPEPVTVSWNSGALTSGVHTFPAVLQSSGLYSLSSVVTVPSSSLGTQTYICNVNHKPSNTKVDKKVEPKSCDKTHTCPPCPAPELLNGPVVFLFPPKPKDTLMISRTPEVTCVVVDVSEEDPEVKFNWYVDGVEVHNAKTKPREEQYNSTYRVVSVLTVLHQDWLNGKEYKCKVSNKALPAPIEKTISKAKGQPREPQVYTLPPSREEMTKNQVSLTCLVKGFYPSDIAVEWESNGQPENNYKTTPMVLDSDGSFFLYSKLTVDKSRWQQGNVFSCSVMHEALHNHYTQKSLSLSP light: DIVMTQSPATLSLSPGERATLSCTSSQSVYHANWLSWFQQKPGQPPKLLIYWASTLAYGVPSRFSGSGSGTDFTLTISSLQPEDAATYYCAGGYGGGRYAFGQGTKVEIKRTVAAPSVFIFPPSDEQLKSGTASVVCLLNNFYPREAKVQWKVDNALQSGNSQESVTEQDSKDSTYSLSSTLTLSKADYEKHKVYACEVTHQGLSSPVTKSFNRGEC
2 | 1900 nM |  | 1100 nM | 41 nM |  | 13000 nM |  |  |  |  |  | M103205H795-MY199/M103202L889-SK1 (antibody, human IgG1, kappa, name in EU numbering, Fc variant of MS1032LO06-SG1; positions in EU numbering) heavy: QVTLKESGPVLVKPTETLTLTCTVSGIDLSHDDISWVRQAPGKGLEWVGIISYAGSTYYASWAKGRLTISKDTSKNQVVLTMTNMDPVDTATYYCARGVPAYSHGGDLWGQGTLVTVSSASTKGPSVFPLAPSSKSTSGGTAALGCLVKDYFPEPVTVSWNSGALTSGVHTFPAVLQSSGLYSLSSVVTVPSSSLGTQTYICNVNHKPSNTKVDKKVEPKSCDKTHTCPPCPAPELLNGPSVFLFPPKPKDTLMISRTPEVTCVVVDVSEEDPEVKFNWYVDGVEVHNAKTKPREEQYNSTYRVVSVLTVLHQDWLNGKEYKCKVSNKALPKPIEKTISKAKGQPREPQVYTLPPSREEMTKNQVSLTCLVKGFYPSDIAVEWESNGQPENNYKTTPPVLDSDGSFFLYSKLTVDKSRWQQGNVFSCSVMHEALHNHYTQKSLSLSP light: DIVMTQSPATLSLSPGERATLSCTSSQSVYHANWLSWFQQKPGQPPKLLIYWASTLAYGVPSRFSGSGSGTDFTLTISSLQPEDAATYYCAGGYGGGRYAFGQGTKVEIKRTVAAPSVFIFPPSDEQLKSGTASVVCLLNNFYPREAKVQWKVDNALQSGNSQESVTEQDSKDSTYSLSSTLTLSKADYEKHKVYACEVTHQGLSSPVTKSFNRGEC
3 | 1500 nM | 8600 nM |  | 5200 nM |  |  | 3500 nM |  |  |  |  | M103205H795-MY289/M103202L889-SK1 (antibody, human IgG1, kappa, name in EU numbering, Fc variant of MS1032LO06-SG1; positions in EU numbering) heavy: QVTLKESGPVLVKPTETLTLTCTVSGIDLSHDDISWVRQAPGKGLEWVGIISYAGSTYYASWAKGRLTISKDTSKNQVVLTMTNMDPVDTATYYCARGVPAYSHGGDLWGQGTLVTVSSASTKGPSVFPLAPSSKSTSGGTAALGCLVKDYFPEPVTVSWNSGALTSGVHTFPAVLQSSGLYSLSSVVTVPSSSLGTQTYICNVNHKPSNTKVDKKVEPKSCDKTHTCPPCPAPELLNGPSVFLFPPKPKDTLMISRTPEVTCVVVDVSHEDPEVKFNWYVDGVEVHNAKTKPREEQYNSTYRVVSVLTVLHQDWLNGKEYKCKVSNKALPKPIEKTISKAKGQPREPQVYTLPPSREEMTKNQVSLTCLVKGFYPSDIAVEWESNGQPENNYKTTPMVLDSDGSFFLYSKLTVDKSRWQQGNVFSCSVMHEALHNHYTQKSLSLSP light: DIVMTQSPATLSLSPGERATLSCTSSQSVYHANWLSWFQQKPGQPPKLLIYWASTLAYGVPSRFSGSGSGTDFTLTISSLQPEDAATYYCAGGYGGGRYAFGQGTKVEIKRTVAAPSVFIFPPSDEQLKSGTASVVCLLNNFYPREAKVQWKVDNALQSGNSQESVTEQDSKDSTYSLSSTLTLSKADYEKHKVYACEVTHQGLSSPVTKSFNRGEC
4 |  |  |  |  |  |  |  | 13 | 40 | 4 | 49 | GpH7-B3 N325E / GpL16-k0 (antibody, human IgG1, kappa, also called B3 variant N325E) heavy: not shown light: DIVMTQSPLSLPVTPGEPASISCQASESLVHSNRNTYLHWYLQKPGQSPQLLIYKVSNRFSGVPDRFSGSGSGTDFTLKISRVEAEDVGVYYCSQNTHVPPTFGQGTKVEIERTVAAPSVFIFPPSDEQLKSGTASVVCLLNNFYPREAKVQWKVDNALQSGNSQESVTEQDSKDSTYSLSSTLTLSKADYEKHKVYACEVTHQGLSSPVTKSFNRGEC
5 |  |  |  |  |  |  |  | 4 | 43 | -1 | 19 | GpH7-B3 P238Q / GpL16-k0 (antibody, human IgG1, kappa, also called B3 variant P238Q) heavy: not shown light: DIVMTQSPLSLPVTPGEPASISCQASESLVHSNRNTYLHWYLQKPGQSPQLLIYKVSNRFSGVPDRFSGSGSGTDFTLKISRVEAEDVGVYYCSQNTHVPPTFGQGTKVEIERTVAAPSVFIFPPSDEQLKSGTASVVCLLNNFYPREAKVQWKVDNALQSGNSQESVTEQDSKDSTYSLSSTLTLSKADYEKHKVYACEVTHQGLSSPVTKSFNRGEC
6 |  |  |  |  |  |  |  | 3 | 112 | 2 | 63 | GpH7-B3 S267L / GpL16-k0 (antibody, human IgG1, kappa, also called B3 variant S267L) heavy: not shown light: DIVMTQSPLSLPVTPGEPASISCQASESLVHSNRNTYLHWYLQKPGQSPQLLIYKVSNRFSGVPDRFSGSGSGTDFTLKISRVEAEDVGVYYCSQNTHVPPTFGQGTKVEIERTVAAPSVFIFPPSDEQLKSGTASVVCLLNNFYPREAKVQWKVDNALQSGNSQESVTEQDSKDSTYSLSSTLTLSKADYEKHKVYACEVTHQGLSSPVTKSFNRGEC
7 |  |  |  |  |  |  |  | 3 | 42 | 1 | 27 | GpH7-B3 S267H / GpL16-k0 (antibody, human IgG1, kappa, also called B3 variant S267H) heavy: not shown light: DIVMTQSPLSLPVTPGEPASISCQASESLVHSNRNTYLHWYLQKPGQSPQLLIYKVSNRFSGVPDRFSGSGSGTDFTLKISRVEAEDVGVYYCSQNTHVPPTFGQGTKVEIERTVAAPSVFIFPPSDEQLKSGTASVVCLLNNFYPREAKVQWKVDNALQSGNSQESVTEQDSKDSTYSLSSTLTLSKADYEKHKVYACEVTHQGLSSPVTKSFNRGEC
